In test [1] the target is gp120 (Table 2, strain not given) (HIV-1). Nature of the test: Luminex bead assay.
Another test deals with HCV E2 (HCV). The test can be described thus: Luminex assay, antibody 50 µg/ml.
Test [2] addresses Influenza HA (Wisconsin) (influenza virus). The test can be described thus: Luminex assay, antibody 50 µg/ml.
The target of test [3] is SSA autoantigen. Nature of the test: Athena assay, mAb 12.5 ug/ml; positive >50.
Test [4] concerns the target Sm autoantigen. Nature of the test: Athena assay, mAb 12.5 ug/ml; positive >50.
Test [5] concerns the target Scl 70 autoantigen. The test can be described thus: Athena assay, mAb 12.5 ug/ml; positive >50.
Test [6] addresses centromere B autoantigen. The test can be described thus: Athena assay, mAb 12.5 ug/ml; positive >50.
The target of test [7] is Histone autoantigen. The test can be described thus: Athena assay, mAb 12.5 ug/ml; positive >50.
Test [8] deals with Jo 1 autoantigen. Nature of the test: Athena assay, mAb 12.5 ug/ml; positive >50.
For test [9], the target named is RNP autoantigen. The test can be described thus: Athena assay, mAb 12.5 ug/ml; positive >50.
The target in test [10] is SSB autoantigen. The test can be described thus: Athena assay, mAb 12.5 ug/ml; positive >50.
Test [11] deals with SSA autoantigen. The test can be described thus: Athena assay, mAb 25 ug/ml; positive >50.
Test [12] addresses Sm autoantigen. Nature of the test: Athena assay, mAb 25 ug/ml; positive >50.
Test [13] deals with Scl 70 autoantigen. Nature of the test: Athena assay, mAb 25 ug/ml; positive >50.
Test [14] addresses centromere B autoantigen. The test can be described thus: Athena assay, mAb 25 ug/ml; positive >50.
Test [15] addresses Histone autoantigen. Nature of the test: Athena assay, mAb 25 ug/ml; positive >50.
Test [16] deals with Jo 1 autoantigen. The test can be described thus: Athena assay, mAb 25 ug/ml; positive >50.
Test [17] deals with RNP autoantigen. The test can be described thus: Athena assay, mAb 25 ug/ml; positive >50.
The target in test [18] is SSB autoantigen. The test can be described thus: Athena assay, mAb 25 ug/ml; positive >50.
Test [19] concerns the target SSA autoantigen. The test can be described thus: Athena assay, mAb 6.25 ug/ml; positive >50.
Test [20] has as its target Sm autoantigen. Nature of the test: Athena assay, mAb 6.25 ug/ml; positive >50.
Test [21] addresses Scl 70 autoantigen. The test can be described thus: Athena assay, mAb 6.25 ug/ml; positive >50.
Test [22] deals with centromere B autoantigen. Nature of the test: Athena assay, mAb 6.25 ug/ml; positive >50.
In test [23] the target is Histone autoantigen. The test can be described thus: Athena assay, mAb 6.25 ug/ml; positive >50.
Test [24] addresses Jo 1 autoantigen. The test can be described thus: Athena assay, mAb 6.25 ug/ml; positive >50.
The target in test [25] is RNP autoantigen. Nature of the test: Athena assay, mAb 6.25 ug/ml; positive >50.
Test [26] addresses SSB autoantigen. The test can be described thus: Athena assay, mAb 6.25 ug/ml; positive >50.
Test [27] has as its target SSA autoantigen. The test can be described thus: Athena assay, mAb 50 ug/ml; positive >50.
Test [28] has as its target Sm autoantigen. Nature of the test: Athena assay, mAb 50 ug/ml; positive >50.
Test [29] addresses Scl 70 autoantigen. Nature of the test: Athena assay, mAb 50 ug/ml; positive >50.
Test [30] concerns the target centromere B autoantigen. Nature of the test: Athena assay, mAb 50 ug/ml; positive >50.
In test [31] the target is Histone autoantigen. The test can be described thus: Athena assay, mAb 50 ug/ml; positive >50.
In test [32] the target is Jo 1 autoantigen. The test can be described thus: Athena assay, mAb 50 ug/ml; positive >50.
The target in test [33] is RNP autoantigen. Nature of the test: Athena assay, mAb 50 ug/ml; positive >50.
For test [34], the target named is SSB autoantigen. Nature of the test: Athena assay, mAb 50 ug/ml; positive >50.
Test [35] has as its target Env of HIV-1 JRFL.E168K (HIV-1). The test can be described thus: cell-based or functional assay.
Test [36] has as its target Env of HIV-1 clade B isolate JRFL (virus) (HIV-1). Nature of the test: cell-based or functional assay.
Test [37] deals with Env of HIV-1 clade A isolate Q23.17 (HIV-1). The test can be described thus: cell-based or functional assay.
Test [38] concerns the target Env of HIV-1 7165.18.N160K (HIV-1). The test can be described thus: cell-based or functional assay.
Test [39] concerns the target Env of HIV-1 clade B isolate 7165.18 (HIV-1). The test can be described thus: cell-based or functional assay.
The target of test [40] is Env of HIV-1 JRFL.N160K.E168K (HIV-1). Nature of the test: cell-based or functional assay.
Test [41] concerns the target Env of HIV-1 JRCSF.N160K (HIV-1) (UniProt P20871). The test can be described thus: cell-based or functional assay.
The target of test [42] is Env of HIV-1 Q23.17.N160K (HIV-1). The test can be described thus: cell-based or functional assay.
Test [43] addresses Env of HIV-1 clade B isolate JR-CSF (HIV-1) (UniProt P20871). Nature of the test: cell-based or functional assay.
Test [44] has as its target HV00043 (63521 TC21 140C) (HIV-1). Nature of the test: SPR. Background: Surface plasmon resonance follows binding to a sensor surface in real time, without labels.
For test [45], the target named is HV00044 (6240 TZ5 140C) (HIV-1). The test can be described thus: SPR.
The target in test [46] is A244gD+ gp120 (herpes simplex virus; HIV-1). Nature of the test: SPR.
The target of a further test is HIV-1 Env gp41 (HIV-1). The test can be described thus: Luminex bead assay.
Another test has as its target A244 gD- gp120 (HIV-1). Nature of the test: SPR.

What is called Kd is the equilibrium constant for the complex coming apart. Higher therefore signals weaker binding.

The substance 1b12 original (antibody) showed a Reactivity in Luminex Units (Luminex Units) in test [1] of 5110.

With PG9 (antibody), the background substracted RFUs (with HCV E2 (HCV); in test [2]) was 0 RFU each time. Further, the Autoreactivity (Athena) with SSA autoantigen [3] turned out to be 5; with Sm autoantigen [4], 3; with Scl 70 autoantigen [5], 2; with centromere B autoantigen [6], 4; in the test with Histone autoantigen [7], 6; with Jo 1 autoantigen [8] it was 2. For the same substance, the Autoreactivity (Athena) was determined as 2 with RNP autoantigen [9]; 4 with SSB autoantigen [10]; 5 in the test with SSA autoantigen [11]; 3 with Sm autoantigen [12]; 1 in the test with Scl 70 autoantigen [13]; 5 with centromere B autoantigen [14]. Moreover, the Autoreactivity (Athena) with Histone autoantigen [15] amounted to 9; with Jo 1 autoantigen [16] it was 2; in the test with RNP autoantigen [17] it was 2; in the test with SSB autoantigen [18] it was 6; with SSA autoantigen [19], 4; with Sm autoantigen [20] it was 2. The Autoreactivity (Athena) is 2 with Scl 70 autoantigen [21]; 4 with centromere B autoantigen [22]; 5 in the test with Histone autoantigen [23]; 2 with Jo 1 autoantigen [24]; 3 with RNP autoantigen [25]; 4 in the test with SSB autoantigen [26]. Besides, the Autoreactivity (Athena) in the test with SSA autoantigen [27] was determined as 5; with Sm autoantigen [28], 2; with Scl 70 autoantigen [29], 2; with centromere B autoantigen [30], 5; in the test with Histone autoantigen [31], 7; in the test with Jo 1 autoantigen [32] it was 1. In addition, the Autoreactivity (Athena) with RNP autoantigen [33] stood at 3; in the test with SSB autoantigen [34], 5. Moreover, the IC50 ug/ml (virus neutralization) was 0.008 µg/mL in [35]; over 50 µg/mL in test [36]; 0.002 µg/mL in [37]; over 50 µg/mL in [38]; over 50 µg/mL in test [39]; over 50 µg/mL in test [40]. Further, the IC50 ug/ml (virus neutralization) was over 50 µg/mL in [41], over 50 µg/mL in test [42] and 0.003 µg/mL in [43]. The IC80 ug/ml (virus neutralization) is 0.055 µg/mL in test [35]; over 50 µg/mL in test [36]; 0.005 µg/mL in test [37]; over 50 µg/mL in [38]; over 50 µg/mL in [39]; over 50 µg/mL in [40]. Moreover, the IC80 ug/ml (virus neutralization) in test [41] is over 50 µg/mL; in test [42], over 50 µg/mL; in test [43], 0.008 µg/mL. Besides, the values for the Kd in test [44], in test [45] and in [46] were 0.00075 µM, 0.21 µM and 0.0048 µM, respectively.

On to 2F5 (antibody), for which the figures for the Reactivity in Luminex Units (Luminex Units) (in the test with HIV-1 Env gp41 (HIV-1); in test [1]) were 32700 and 9240, respectively.

Consider PG16 (antibody), for which the background substracted RFUs (with HCV E2 (HCV); in test [2]) was 0 RFU throughout. In addition, the Autoreactivity (Athena) turned out to be 4 with SSA autoantigen [3]; 2 with Sm autoantigen [4]; 1 with Scl 70 autoantigen [5]; 4 with centromere B autoantigen [6]; 8 with Histone autoantigen [7]; 1 with Jo 1 autoantigen [8]. Moreover, the Autoreactivity (Athena) with RNP autoantigen [9] was 3; with SSB autoantigen [10], 4; with SSA autoantigen [19], 5; with Sm autoantigen [20], 2; with Scl 70 autoantigen [21], 2; in the test with centromere B autoantigen [22], 5. For the same substance, the Autoreactivity (Athena) with Histone autoantigen [23] is 8; in the test with Jo 1 autoantigen [24], 2; with RNP autoantigen [25], 2; with SSB autoantigen [26] it was 5; with SSA autoantigen [27], 4; with Sm autoantigen [28], 0. In addition, the Autoreactivity (Athena) with Scl 70 autoantigen [29] amounted to 1; with centromere B autoantigen [30], 3; with Histone autoantigen [31] it was 2; in the test with Jo 1 autoantigen [32] it was 0; in the test with RNP autoantigen [33], 2; in the test with SSB autoantigen [34], 2. In addition, the IC50 ug/ml (virus neutralization) in test [35] was 0.003 µg/mL; in [36], over 50 µg/mL; in test [37], 0.001 µg/mL; in test [38], over 50 µg/mL; in test [39], 11.8 µg/mL; in test [40], over 50 µg/mL. For the same substance, the IC50 ug/ml (virus neutralization) in [41] was over 50 µg/mL; in [42] it was over 50 µg/mL; in [43] it was 0.003 µg/mL. Also, the IC80 ug/ml (virus neutralization) in test [35] was 0.015 µg/mL; in test [36], over 50 µg/mL; in test [37] it was 0.003 µg/mL; in test [38], over 50 µg/mL; in test [39] it was over 50 µg/mL; in test [40], over 50 µg/mL. In addition, the IC80 ug/ml (virus neutralization) in test [41] is over 50 µg/mL; in [42], over 50 µg/mL; in [43], 0.012 µg/mL. The Kd in test [44] was found to be 0.16 µM; in test [45], 0.11 µM; in test [46] it was 0.45 µM.

CH03 (antibody): the background substracted RFUs turned out to be 2910 RFU in the test with HCV E2 (HCV) and 1 RFU in [2]. Also, the Autoreactivity (Athena) in the test with SSA autoantigen [3] is 6; in the test with Sm autoantigen [4], 9; with Scl 70 autoantigen [5], 8; with centromere B autoantigen [6], 30; in the test with Histone autoantigen [7], 359; with Jo 1 autoantigen [8] it was 4. In addition, the Autoreactivity (Athena) worked out at 74 in the test with RNP autoantigen [9]; 6 with SSB autoantigen [10]; 6 in the test with SSA autoantigen [11]; 10 with Sm autoantigen [12]; 7 with Scl 70 autoantigen [13]; 34 in the test with centromere B autoantigen [14]. In addition, the Autoreactivity (Athena) in the test with Histone autoantigen [15] worked out at 386; with Jo 1 autoantigen [16], 4; with RNP autoantigen [17], 70; in the test with SSB autoantigen [18] it was 4; with SSA autoantigen [19] it was 5; in the test with Sm autoantigen [20], 7. In addition, the Autoreactivity (Athena) with Scl 70 autoantigen [21] worked out at 4; with centromere B autoantigen [22] it was 19; in the test with Histone autoantigen [23], 231; in the test with Jo 1 autoantigen [24], 3; in the test with RNP autoantigen [25], 51; in the test with SSB autoantigen [26], 5. Further, the Autoreactivity (Athena) with SSA autoantigen [27] is 9; with Sm autoantigen [28], 24; with Scl 70 autoantigen [29], 12; in the test with centromere B autoantigen [30] it was 98; in the test with Histone autoantigen [31], 844; with Jo 1 autoantigen [32], 5. For the same substance, the results for the Autoreactivity (Athena) with RNP autoantigen [33] and with SSB autoantigen [34] were 132 and 7, respectively. Further, the Kd was found to be 0.728 µM with A244 gD- gp120 (HIV-1), 1.06 µM in test [45] and 0.0156 µM in [46].

In the test with HIV-1 Env gp41 (HIV-1), 17b original CCR5 binding site antibody came in with a Reactivity in Luminex Units (Luminex Units) of 1430.

Values taken from patent US20120321699A1.
